What was measured:
LGR7 = molecular target: T1, LGR7 (Homo sapiens, UniProt Q9HBX9); assay: Flow cytometry-based relaxin binding assay on 293T-LGR7 cells, competed with bH2; settings: unconcentrated CM, WT H2 1 and 4 ng/mL, ΔH2 1 ng/mL, competed with 5 ng bH2
T1 construct: expressed in transfected cells; host or cells: 293T-LGR7 (293T human embryonic kidney cells)
T1 sequence (Q9HBX9 1-757): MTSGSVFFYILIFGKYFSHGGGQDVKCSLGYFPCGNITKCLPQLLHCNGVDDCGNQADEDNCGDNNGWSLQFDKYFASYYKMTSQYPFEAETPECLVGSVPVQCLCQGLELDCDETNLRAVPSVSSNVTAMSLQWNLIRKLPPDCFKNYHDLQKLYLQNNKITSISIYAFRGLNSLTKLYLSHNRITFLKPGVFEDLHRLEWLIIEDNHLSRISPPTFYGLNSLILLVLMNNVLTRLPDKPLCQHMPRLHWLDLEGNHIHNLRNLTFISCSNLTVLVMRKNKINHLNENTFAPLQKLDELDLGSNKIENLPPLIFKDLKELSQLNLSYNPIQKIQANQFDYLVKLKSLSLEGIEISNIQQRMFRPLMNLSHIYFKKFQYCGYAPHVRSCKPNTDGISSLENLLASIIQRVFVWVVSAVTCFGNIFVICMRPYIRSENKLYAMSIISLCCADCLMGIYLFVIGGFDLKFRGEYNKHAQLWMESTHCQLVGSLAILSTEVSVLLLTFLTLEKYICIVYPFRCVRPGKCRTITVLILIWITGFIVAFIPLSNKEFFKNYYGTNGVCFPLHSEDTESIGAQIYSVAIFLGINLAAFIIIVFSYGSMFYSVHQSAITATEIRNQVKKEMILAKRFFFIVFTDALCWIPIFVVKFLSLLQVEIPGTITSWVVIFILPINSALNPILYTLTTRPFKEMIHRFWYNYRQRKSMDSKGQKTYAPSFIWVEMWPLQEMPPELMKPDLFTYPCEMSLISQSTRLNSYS
Experimental: To optimize collection of recombinant ΔH2 peptide for this assay, single-cell clones of LV-infected 293T cell cultures were isolated. Clones were confirmed by flow cytometry measuring eGFP fluorescence and selected based on highest expression. 293T-eGFP#3, 293TΔH2/eGFP#6, 293T-H2/eGFP#3 cell cultures were seeded in 15-cam plates in complete medium overnight, refreshed with Dulbecco's Modified Eagle Medium (DMEM) medium containing 2% FCS after 24 h, and incubated for an additional 48 h. At this point, CM were collected for assays. H2 relaxin levels in unconcentrated CM from 293T-eGFP#3, 293TΔH2/eGFP#6, 293T-H2/eGFP#3 cell cultures were approximated by the H2 ELISA to be 0, 1, and 4 ng/mL (data not shown).
293T-LGR7 cells were collected, washed with PBS supplemented with 1% FCS (PBS-1%), and resuspended at 1.67×10^7 cells/mL. For each sample, 30 μl (0.5×10^6 […]) were added per 5 mL polystyrene round-bottom Falcon tube (Becton Dickinson Labware, Franklin Lakes, N.J., USA). Control samples contained 50 μL of either PBS-1% containing 5 ng of rH2 or 50 μL of PBS-1% alone. […] Samples were incubated for 15 min at RT. […] Cells were washed twice with 500 μL of PBA-1% and analyzed on a FACSCalibur flow cytometer) BDBiosciences, Franklin Lakes, N. J., USA).

[1] = Plasma osmolality of PC3-Luc tumor-bearing mice at week 11; assay type: in vivo, mouse; settings: week 11, P=0.04
Experimental: To determine whether H2 and ΔH2 relaxins secreted from the PC3-Luc tumor xenografts elicited a systemic physiological response, plasma osmolality was measured from the animals at the termination of the study (FIG. 4D). Plasma osmolality readings obtained from PC3-H2/eGFP, PC3-Luc-eGFP and PC3-Luc-ΔH2/eGFP animals averaged 330±4.6 […] and 342±4.6 mmol/L, respectively. […] Overexpression of ΔH2 relaxin in the tumor microenvironment may inhibit endogenous H2 relaxin progrowth signals to tumor cells or tumor-infiltrated ECs.
Six-to-eight week old male NOD/SCID mice (The Jackson Laboratory; Bar Harbour, Me.) wore maintained at the Animal Resource Facility (PMH, Toronto, Canada) under an approved UHN protocol. […] Tumors were measured weekly by calipers and tumor volume approximated (l×w×d), as described previously (Silvertown, J. D., Ng, J., Sato, T., Summerlee, A. J., Medin, J. A. 2006. H2 relaxl; overexpression increases in vivo prostate xenograft tumor growth and angiogenesis. Iift J Cancer. 118:62-73). […] For plasma osmolality readings, approximately 100-200 μL of blood was collected in heparin (heparin sodium, 1000 USP units/mL; Hepalean) and sent for analysis (Animal Health Laboratory, Department of Pathobiology, University of Guelph).

relaxin receptor = settings: Bullesbach 1992; cited from earlier work
[2] = molecular target: T2, relaxin receptors on THP-1 cells (Homo sapiens, UniProt Q9HBX9); assay: THP-1 cAMP bioassay; settings: THP-1 and PC3-Luc cell cultures
T2 sequence (Q9HBX9 1-757): T1 sequence (Q9HBX9 1-757)
Excerpt: To confirm the biological activity of the H2 and ΔH2 relaxins, the cAMP Biotrak E1A System was employed (Amersham Biosciences) as described before (Parsell, D. A., Mak, J. Y., Amento, E P., Unemori, E. N. 1996. Relaxin binds to and elicits a response from cells of the human monocytic cell line, THP-1. J Biol Chem. 271:27936-41; Silvertown, J. D., Geddes, B. J., Summerlee, A. J. 2003. Adenovirus mediated expression of human prorelaxin promotes the invasive potential of canine mammary cancer cells. Endocrinology. 144:3683-91). For measuring bioactivity from CM, 40 μL from each concentrated CM sample was added to THP-1 cells. For measuring cAMP levels directly from the LV-infected PC3-Luc cells, 1×10^5 cells were seeded in a 96-well plate and equilibrated for 2 h before cAMP was measured as described (Parsell, D. A., Mak, J. Y., Amento, E P., Unemori, E. N. 1996. Relaxin binds to and elicits a response from cells of the human monocytic cell line, THP-1. J Biol Chem. 271:27936-41; Silvertown, J. D., Geddes, B. J., Summerlee, A. J. 2003. Adenovirus-mediated expression of human prorelaxin promotes the invasive potential of canine mammary cancer cells. Endocrinology. 144:3683-91). The THP-1 cAMP assay was also adapted for an H2 relaxin competitive assay. […]

receptor affinity (LGR7): low
Bioactivity by cAMP assays [2]: significantly impaired
B1: ΔH2: H2 relaxin with lysine substitution at B13 and B17 of the receptor binding domain, B20 Ile (protein, UniProt P04090 1-185, looked up, variant R13K R17K)
chain: MPRLFFFHLLGVCLLLNQFSRAVADSWMEEVIKLCGKELVKAQIAICGMSTWSKRSLSQEDAPQTPRPVAEIVPSFINKDTETINMMSEFVANLPQELKLTLSEMQPALPQLQQHVPVLKDSSLLFEEFKKLIRNRQSEAADSSPSELKYLGLDTHSRKKRQLYSALANKCCHVGCTKRSLARFC
modifications: B-chain numbering
plasma osmolality increase compared to wild-type H2-expressing tumor animals [1]: approximately 12 mmol/L
biological activity (relaxin receptor): biologically inactive
lower affinity for receptor binding than wild type H2 relaxin (relaxin receptor): ~2200 fold

— patent publication US8445635B2, “Modified H2 relaxin for tumor suppression” (Armour Therapeutics Inc., priority 2006, dated 2013)
